This is an account of results in patent publication US20220275083A1 (EUTILEX, published 2022).

As a reminder, the Kd is the concentration at which binding is half-saturated. A lower Kd goes with tighter binding. In general, koff refers to a measure of how fast the partners let go of each other. Read a high koff as a short-lived complex. A word on the kon: it is a measure of how fast the partners come together. Higher therefore signals fast association. A word on the EC50 (read off the curve): it is the concentration giving half of the maximal effect. Lower therefore signals greater potency.

Changes are numbered by the printed parent chain. Names and notes keep the numbering of the source.

Test [1] addresses T1, PD-L1 antigen (SinoBiologics, Cat. No. 10084-H08H) (human, UniProt Q9NZQ7 19-238).
T1 construct: Bought antigen; also called human PD-L1
Briefly: SPR, Biacore T200; variant captured on CM5, PD-L1 antigen injected. Here is the method:
(§1) Affinity to 4-1BB was determined using the bispecific epitope binding protein variants diluted to 5 μg/ml and then fixed to CM5 chip (Cytiva, BR-1005-30) with human capture (Cytiva, Cat. No. BR-1008-39). The 4-1BB antigen (abclon) was injected at concentrations of 100, 50, 25, 12.5, 6.25, and 3.125 nM, the association time was set to 150 seconds, and the dissociation time was set to 240 seconds. Biacore T200 (cytiva) was used as the analysis equipment.
(§2) Affinity to PD-L1 was determined using the bispecific epitope binding protein variants diluted to 10 μg/ml and then fixed to CM5 chip with human capture.
Background: SPR reads the build-up and loss of mass on a sensor chip optically.

Another test addresses T2, 4-1BB antigen (abclon) (UniProt Q07011 24-186).
T2 construct: Bought antigen
Briefly: SPR, Biacore T200; variant captured on CM5, 4-1BB antigen injected. Here is the method: as §1

Test [2] concerns the target T3, biotinylated PD-L2 (SinoBiologics, Cat. No. 10292-H08H-B) (UniProt Q9BQ51 20-219, biotinylated).
T3 construct: Bought antigen
T3 sequence (looked up): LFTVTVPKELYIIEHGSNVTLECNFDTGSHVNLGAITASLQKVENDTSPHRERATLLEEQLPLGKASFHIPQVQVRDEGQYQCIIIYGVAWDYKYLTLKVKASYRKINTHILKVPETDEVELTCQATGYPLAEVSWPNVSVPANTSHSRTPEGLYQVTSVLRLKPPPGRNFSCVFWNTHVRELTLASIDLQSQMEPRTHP
Description: ELISA, S03 coated in 4-fold dilutions up to 0.1 ug/ml, biotinylated PD-L2 0.1 ug/ml, avidin-HRP.

For test [3], the target named is T1, PD-L1 antigen (SinoBiologics, Cat. No. …). Briefly: SPR, Biacore T200; S03 captured on CM5, PD-L1 antigen injected (same values as Table 2). Here is the method: as §1, §2
Test [4] shares this target. Briefly: SPR, Biacore T200; comparison of S03 with human PD-1-Fc.
For test [5] the target is unchanged. Briefly: SPR, Biacore T200; S03 captured on CM5, PD-L1 antigen injected (same values as Table 2); Table 3, comparison with natural PD1-Fc.
Test [6] has the same target. Description: dual antigen ELISA: PD-L1 coated, S03 titrated, detected with biotinylated 4-1BB and avidin-HRP (signal needs both antigens). On the technique in general: In an ELISA, binding on a coated surface is turned into a signal by an enzyme label.
For test [7], the target named is T4, biotinylated C1q (comp Tech, Cat. No. A099) protein (UniProt P02745 23-245; P02746 28-253; P02747 29-245, biotinylated (chain not stated)).
T4 construct: Bought C1q, biotinylated with a kit
Description: C1q ELISA, S03 coated at 75 nM, biotinylated C1q titrated in 2-fold steps from 2 ug/ml, avidin-HRP.

Test [8] concerns the target T1, PD-L1 antigen (SinoBiologics, Cat. No. …). Briefly: ELISA, PD-L1 antigen coated, anti-human IgG Fc-HRP detection, 11 points.

T1 sequence (Q9NZQ7 19-238 limits assumed): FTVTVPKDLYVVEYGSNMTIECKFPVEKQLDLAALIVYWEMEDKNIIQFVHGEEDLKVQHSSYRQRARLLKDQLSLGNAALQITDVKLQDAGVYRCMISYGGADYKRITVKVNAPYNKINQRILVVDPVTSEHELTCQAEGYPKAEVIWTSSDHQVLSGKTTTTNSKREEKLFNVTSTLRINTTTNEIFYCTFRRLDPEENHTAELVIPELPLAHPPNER
T2 sequence (Q07011 24-186): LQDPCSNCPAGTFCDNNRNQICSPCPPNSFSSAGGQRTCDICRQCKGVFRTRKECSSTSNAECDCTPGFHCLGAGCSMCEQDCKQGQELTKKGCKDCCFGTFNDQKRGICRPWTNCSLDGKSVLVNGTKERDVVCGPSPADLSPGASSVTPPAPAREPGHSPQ
T4 sequence (P02745 23-245, chain 1 of 3): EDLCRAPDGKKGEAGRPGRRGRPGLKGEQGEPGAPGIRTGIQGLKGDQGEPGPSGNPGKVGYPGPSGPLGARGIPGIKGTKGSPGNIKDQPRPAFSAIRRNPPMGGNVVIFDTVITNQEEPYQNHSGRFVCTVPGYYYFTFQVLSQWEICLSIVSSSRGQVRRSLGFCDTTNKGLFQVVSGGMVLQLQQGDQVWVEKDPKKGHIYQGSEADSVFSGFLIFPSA
T4 sequence (P02746 28-253, chain 2 of 3): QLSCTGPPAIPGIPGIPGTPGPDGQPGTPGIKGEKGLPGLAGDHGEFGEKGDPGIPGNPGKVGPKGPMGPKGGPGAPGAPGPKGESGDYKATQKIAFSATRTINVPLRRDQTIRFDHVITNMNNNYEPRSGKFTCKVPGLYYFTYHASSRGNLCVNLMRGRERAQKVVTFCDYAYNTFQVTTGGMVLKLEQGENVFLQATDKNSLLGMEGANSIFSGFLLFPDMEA
T4 sequence (P02747 29-245, chain 3 of 3): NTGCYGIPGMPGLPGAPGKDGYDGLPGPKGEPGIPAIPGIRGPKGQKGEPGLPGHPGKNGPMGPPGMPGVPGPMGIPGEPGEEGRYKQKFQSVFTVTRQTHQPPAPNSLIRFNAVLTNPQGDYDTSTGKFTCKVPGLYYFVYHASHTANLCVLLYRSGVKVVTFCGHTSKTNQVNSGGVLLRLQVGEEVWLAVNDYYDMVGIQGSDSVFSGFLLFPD

B1: bispecific epitope binding protein S09 (bispecific antibody)
heavy: QVQLVQSGAEVKKPGASVKLSCKASGYTFSSYWMHWVRQAPGQGLEWIGEINPGNGHTNYNEKFKSRVTMTRDTSTSTAYMELSSLRSEDTAVYYCARSFKTARAFAYWGQGTLVTVSSASTKGPSVFPLAPSSKSTSGGTAALGCLVKDYFPEPVTVSWNSGALTSGVHTFPAVLQSSGLYSLSSVVTVPSSSLGTQTYICNVNHKPSNTKVDKKVEPKSCDKTHTCPPCPAPEAAGGPSVFLFPPKPKDTLMISRTPEVTCVVVDVSHEDPEVKFNWYVDGVEVHNAKTKPREEQYNSTYRVVSVLTVLHQDWLNGKEYKCAVSNKALPAPIEKTISKAKGQPREPQVYTLPPSREEMTKNQVSLTCLVKGFYPSDIAVEWESNGQPENNYKTTPPVLDSDGSFFLYSKLTVDKSRWQQGNVFSCSVMHEALHNHYTQKSLSLSPGGGGGSGGGGSFLESPDRPWNAPTFSPALLLVAEGDNATFTCSFSNASESFHVVWHRESPSGQTDTLAAFPEDRSQPGQDHRFRVTRLPNGRDFHMSVVRAQRNDSGTYVCGVISLAPKIQIKESLRAELRVTERRAEVPTAHPSPSPRPAGQFQTLVVG
light: DIVMTQSPAFLSVTPGEKVTITCRASQTISDYLHWYQQKPDQAPKLLIKYASQSISGIPSRFSGSGSGTDFTFTISSLEAEDAATYYCQDGHSWPPTFGQGTKLEIKRTVAAPSVFIFPPSDEQLKSGTASVVCLLNNFYPREAKVQWKVDNALQSGNSQESVTEQDSKDSTYSLSSTLTLSKADYEKHKVYACEVTHQGLSSPVTKSFNRGEC
notes: engineered IgG1 Fc; carries euPD-1
In test [1], B1 gave a Kd of 6.26 nM, a koff of 0.00131 s⁻¹ and a kon of 209000 M⁻¹ s⁻¹. In addition, in the test with 4-1BB antigen (abclon), the Kd was 2.17 nM, the dissociation rate constant (koff) is 0.000568 s⁻¹ and the kon was 261000 M⁻¹ s⁻¹.

B2: bispecific epitope binding protein S10 (bispecific antibody)
heavy: QVQLVQSGAEVKKPGASVKLSCKASGYTFSSYWMHWVRQAPGQGLEWIGEINPGNGHTNYNEKFKSRVTMTRDTSTSTAYMELSSLRSEDTAVYYCARSFKTARAFAYWGQGTLVTVSSASTKGPSVFPLAPSSKSTSGGTAALGCLVKDYFPEPVTVSWNSGALTSGVHTFPAVLQSSGLYSLSSVVTVPSSSLGTQTYICNVNHKPSNTKVDKKVEPKSCDKTHTCPPCPAPEAAGGPSVFLFPPKPKDTLMISRTPEVTCVVVDVSHEDPEVKFNWYVDGVEVHNAKTKPREEQYNSTYRVVSVLTVLHQDWLNGKEYKCAVSNKALPAPIEKTISKAKGQPREPQVYTLPPSREEMTKNQVSLTCLVKGFYPSDIAVEWESNGQPENNYKTTPPVLDSDGSFFLYSKLTVDKSRWQQGNVFSCSVMHEALHNHYTQKSLSLSPGGSTSGSGKPGSGEGSTKGSFLESPDRPWNAPTFSPALLLVAEGDNATFTCSFSNASESFHVVWHRESPSGQTDTLAAFPEDRSQPGQDHRFRVTRLPNGRDFHMSVVRAQRNDSGTYVCGVISLAPKIQIKESLRAELRVTERRAEVPTAHPSPSPRPAGQFQTLVVG
light: B1 light
notes: as for B1
As for B2, in test [1], the Kd was 3.73 nM, the koff turned out to be 0.00141 s⁻¹ and the kon came to 377000 M⁻¹ s⁻¹. In addition, in the test with 4-1BB antigen (abclon), binding was characterised by a dissociation constant (Kd) of 2.3 nM, the koff amounted to 0.000601 s⁻¹ and the kon came out at 262000 M⁻¹ s⁻¹.

B3: bispecific epitope binding protein S03 (bispecific antibody)
chain: DIVMTQSPAFLSVTPGEKVTITCRASQTISDYLHWYQQKPDQAPKLLIKYASQSISGIPSRFSGSGSGTDFTFTISSLEAEDAATYYCQDGHSWPPTFGQGTKLEIKGSTSGSGKPGSGEGSTKGQVQLVQSGAEVKKPGASVKLSCKASGYTFSSYWMHWVRQAPGQGLEWIGEINPGNGHTNYNEKFKSRVTMTRDTSTSTAYMELSSLRSEDTAVYYCARSFKTARAFAYWGQGTLVTVSSASGGGGSGGGGSDKTHTCPPCPAPEAAGGPSVFLFPPKPKDTLMISRTPEVTCVVVDVSHEDPEVKFNWYVDGVEVHNAKTKPREEQYNSTYRVVSVLTVLHQDWLNGKEYKCAVSNKALPAPIEKTISKAKGQPREPQVYTLPPSREEMTKNQVSLTCLVKGFYPSDIAVEWESNGQPENNYKTTPPVLDSDGSFFLYSKLTVDKSRWQQGNVFSCSVMHEALHNHYTQKSLSLSPGGGGGSGGGGSFLESPDRPWNAPTFSPALLLVAEGDNATFTCSFSNASESFHVVWHRESPSGQTDTLAAFPEDRSQPGQDHRFRVTRLPNGRDFHMSVVRAQRNDSGTYVCGVISLAPKIQIKESLRAELRVTERRAEVPTAHPSPSPRPAGQFQTLVVG
notes: Anti-4-1BB 94kvt scFv x euPD-1 with hinge and engineered IgG1 Fc (L234A, L235A, K322A, D356E, L358M)
With B3, the results for the Kd (in test [1]; in test [3]; in the test with 4-1BB antigen (abclon)) were 5.07 nM, 5.07 nM and 3.05 nM, respectively. Also, the results for the koff (in [1]; in test [3]; with 4-1BB antigen (abclon)) were 0.00115 s⁻¹, 0.00115 s⁻¹ and 0.000634 s⁻¹, respectively. In addition, the on-rate (kon) in [1] turned out to be 227000 M⁻¹ s⁻¹; in the test with 4-1BB antigen (abclon), 208000 M⁻¹ s⁻¹; in [5], 227000 M⁻¹ s⁻¹. Moreover, the binding result is recorded as “no binding (tested: log10 2.0 ng/mL (100 ng/mL coated))” in test [2] and “no binding (tested: 2 ug/ml C1q)” in test [7]. In test [4], the “fold stronger binding than natural PD-1 (human PD-1-Fc)” value was approximately 93 fold. The “EC50 (read off the curve)” value in test [6] is approximately 0.05 µg/mL.

B4: S13 (PD-L1 null variant of S03) (bispecific antibody)
chain: B3 chain with T547A, I595A, I603A
On to B4, for which, in test [8], the binding result was “no binding (tested: log 1.7 ug/mL as drawn (about 50 ug/mL))”.

B5: bispecific epitope binding protein S02 (bispecific antibody)
chain: QVQLVQSGAEVKKPGASVKLSCKASGYTFSSYWMHWVRQAPGQGLEWIGEINPGNGHTNYNEKFKSRVTMTRDTSTSTAYMELSSLRSEDTAVYYCARSFKTARAFAYWGQGTLVTVSSGSTSGSGKPGSGEGSTKGDIVMTQSPAFLSVTPGEKVTITCRASQTISDYLHWYQQKPDQAPKLLIKYASQSISGIPSRFSGSGSGTDFTFTISSLEAEDAATYYCQDGHSWPPTFGQGTKLEIKASGGGGSGGGGSDKTHTCPPCPAPEAAGGPSVFLFPPKPKDTLMISRTPEVTCVVVDVSHEDPEVKFNWYVDGVEVHNAKTKPREEQYNSTYRVVSVLTVLHQDWLNGKEYKCAVSNKALPAPIEKTISKAKGQPREPQVYTLPPSREEMTKNQVSLTCLVKGFYPSDIAVEWESNGQPENNYKTTPPVLDSDGSFFLYSKLTVDKSRWQQGNVFSCSVMHEALHNHYTQKSLSLSPGGGGGSGGGGSFLESPDRPWNAPTFSPALLLVAEGDNATFTCSFSNASESFHVVWHRESPSGQTDTLAAFPEDRSQPGQDHRFRVTRLPNGRDFHMSVVRAQRNDSGTYVCGVISLAPKIQIKESLRAELRVTERRAEVPTAHPSPSPRPAGQFQTLVVGGGGGSGGGGSGGGGSFLESPDRPWNAPTFSPALLLVAEGDNATFTCSFSNASESFHVVWHRESPSGQTDTLAAFPEDRSQPGQDHRFRVTRLPNGRDFHMSVVRAQRNDSGTYVCGVISLAPKIQIKESLRAELRVTERRAEVPTAHPSPSPRPAGQFQTLVVG
notes: Anti-4-1BB 94kvt scFv x euPD-1 with hinge and engineered IgG1 Fc
In the case of B5, in [1], the affinity, expressed as Kd, was 4.06 nM; the koff came out at 0.00132 s⁻¹; the kon is 324000 M⁻¹ s⁻¹. Further, in the test with 4-1BB antigen (abclon), the affinity, expressed as Kd, was 3.67 nM; the koff is 0.000658 s⁻¹; the association rate constant (kon) amounted to 179000 M⁻¹ s⁻¹.
